Assay results: IntAct's records for PubMed 32873725

B1: Phospholamban (Mus musculus), P61014 (parent)
chain: MEKVQYLTRSAIRRASTIEMPQQARQNLQNLFINFCLILICLLLICIIVMLL

Variants of: B1
Details: with kcc2d_human CAMK2D

Variant	effect of a mutation on the interaction
MEKVQYLTRSAIRRAATIEMPQQARQNLQNLFINFCLILICLLLICIIVMLL [S16A]	with no effect
